Source: patent US20160324936

Test system: GST-p21

Substance	in vitro kinase assay: 32P-labeling of GST-p21, SDS-PAGE and autoradiography
GFP-tagged wild-type 34 kDa human PIM-1 (GFP-PIM-wt)	Pim-wt overexpression phosphorylates p21
GFP-tagged kinase dead (K67M) mutant of PIM-1 (GFP-PIM-DN)	this activity was abolished in the Pim-DN construct
